The target of assay [1] is T1, human CD28 on CHO cells (parental cell line CHO-k1 ATCC #CCL-61, modified to stably overexpress human CD28) (human, UniProt P10747 19-220).
T1 construct: The whole entry (with signal peptide) is named; also called CHOk1-huCD28; CHOk1 huCD28
In words: flow cytometry (MFI PE), one-armed IgG from supernatant on CHO-k1 cells stably overexpressing human CD28; PE-conjugated goat anti-human secondary.

Assay [2] deals with T1, human CD28 on CHO cells (parental cell …). Described as above. The source holds these as a separate data set.
For assay [3] the target is unchanged. Nature of the assay: flow cytometry (MFI PE) on CHOk1-huCD28 cells; R-PE F(ab')2 goat anti-human IgG Fcgamma secondary.
Assay [4] has as its target T2, Her2 expressed on the cell surface of the human breast cancer cell line KPL-4 (human, UniProt P04626 23-1255).
T2 construct: endogenous Her2 of KPL-4 cells stood in the assay; also called ErbB2; human epidermal growth factor receptor-2
Nature of the assay: flow cytometry (MFI PE); panel title on the sheet: Binding to human Her2, KPL4; R-PE F(ab')2 goat anti-human IgG Fcgamma secondary.

Assay [5] deals with T2, Her2 expressed on the cell surface of …. Nature of the assay: flow cytometry (MFI PE) on KPL-4 cells; R-PE F(ab')2 goat anti-human IgG Fcgamma secondary.
The target of assay [6] is T1, human CD28 on CHO cells (parental cell …). In words: flow cytometry (MFI PE); panel title on the sheet: Binding to human CD28, CHO-k1-huCD28; R-PE F(ab')2 goat anti-human IgG Fcgamma secondary.

B1: CD28(SA)_variant_15 (antibody, human IgG1, kappa, L234A L235A)
heavy: not shown
light: not shown
chain: DKTHTCPPCPAPEAAGGPSVFLFPPKPKDTLMISRTPEVTCVVVDVSHEDPEVKFNWYVDGVEVHNAKTKPREEQYNSTYRVVSVLTVLHQDWLNGKEYKCKVSNKALGAPIEKTISKAKGQPREPQVCTLPPSRDELTKNQVSLSCAVKGFYPSDIAVEWESNGQPENNYKTTPPVLDSDGSFFLVSKLTVDKSRWQQGNVFSCSVMHEALHNRFTQKSLSLSP
notes: tested from HEK supernatant, unpurified; also called P1AE3071
For the molecule B1, the binding result in assay [1] was “binds”.

B2: CD28(SA)_variant_12 (antibody, human IgG1, kappa, L234A L235A)
heavy: not shown
light: DIQMTQSPSSLSASVGDRVTITCRASQNIYVWLNWYQQKPGKAPKLLIYKASNLYSGVPSRFSGSRSGTDFTLTISSLQPEDFATYYCQQGQTYPYTFGQGTKLEIKRTVAAPSVFIFPPSDRKLKSGTASVVCLLNNFYPREAKVQWKVDNALQSGNSQESVTEQDSKDSTYSLSSTLTLSKADYEKHKVYACEVTHQGLSSPVTKSFNRGEC
chain: B1 chain
notes: tested from HEK supernatant, unpurified; also called P1AE3068
As for B2, the binding result in assay [1] is listed as “binds”.

B3: CD28(SA)_variant_16 (antibody, human IgG1, kappa, L234A L235A)
heavy: not shown
light: not shown
chain: B1 chain
notes: tested from HEK supernatant, unpurified; also called P1AE3072
Turning to B3, the binding result in assay [1] is “binds”.

B4: CD28(SA)_variant_13 (antibody, human IgG1, kappa, L234A L235A)
heavy: not shown
light: not shown
chain: B1 chain
notes: tested from HEK supernatant, unpurified; also called P1AE3069
On to B4, for which the binding result in assay [1] was “binds”.

B5: CD28(SA)_variant_31 (antibody, human IgG1, kappa, L234A L235A)
heavy: not shown
light: not shown
chain: B1 chain
notes: tested from HEK supernatant, unpurified; also called P1AE3087
Regarding B5, the binding result in assay [2] is listed as “binds”.

B6: CD28(SA)_variant_26 (antibody, human IgG1, kappa, L234A L235A)
heavy: not shown
light: not shown
chain: B1 chain
notes: tested from HEK supernatant, unpurified; also called P1AE3082
Regarding B6, the binding result in assay [2] was “binds”.

B7: CD28(SA)_variant_30 (antibody, human IgG1, kappa, L234A L235A)
heavy: not shown
light: B2 light
chain: B1 chain
notes: tested from HEK supernatant, unpurified; also called P1AE3086
B7: the binding result in assay [2] is on record as “binds”.

B8: CD28(SA)_variant_25 (antibody, human IgG1, kappa, L234A L235A)
heavy: not shown
light: not shown
chain: B1 chain
notes: tested from HEK supernatant, unpurified; also called P1AE3081
As for B8, in assay [2], the binding result was “binds”.

B9: CD28(SA)_variant_17 (antibody, human IgG1, kappa, L234A L235A)
heavy: not shown
light: not shown
chain: B1 chain
notes: tested from HEK supernatant, unpurified; also called P1AE3073
For the molecule B9, the binding result in assay [1] is recorded as “binds”.

B10: CD28(SA)_variant_29 (antibody, human IgG1, kappa, L234A L235A)
heavy: not shown
light: not shown
chain: B1 chain
notes: tested from HEK supernatant, unpurified; also called P1AE3085
Turning to B10, the binding result in assay [2] was “binds”.

B11: CD28(SA)_variant_27 (antibody, human IgG1, kappa, L234A L235A)
heavy: not shown
light: not shown
chain: B1 chain
notes: tested from HEK supernatant, unpurified; also called P1AE3083
For the molecule B11, in assay [2], the binding result was “binds”.

B12: Molecule A: Her2 (pertuzumab CLC_WT)-CD28 (SA_Variant 8) 1+1 format (bispecific antibody, human IgG1, kappa, L234A L235A)
heavy 1: not shown
light 1: QVQLVQSGAEVKKPGASVKVSCKASGYTFTSYYIHWVRQAPGQGLEWIGSIYPGNVQTNYNEKFKDRATLTVDTSISTAYMELSRLRSDDTAVYFCTRSHYGLDFNFDVWGQGTTVTVSSASVAAPSVFIFPPSDEQLKSGTASVVCLLNNFYPREAKVQWKVDNALQSGNSQESVTEQDSKDSTYSLSSTLTLSKADYEKHKVYACEVTHQGLSSPVTKSFNRGEC
heavy 2: not shown
light 2: DIQMTQSPSSLSASVGDRVTITCKASQDVSTAVAWYQQKPGKAPKLLIYSASFRYTGVPSRFSGSRSGTDFTLTISSLQPEDFATYYCQQHYTTPPTFGQGTKVEIKRTVAAPSVFIFPPSDRKLKSGTASVVCLLNNFYPREAKVQWKVDNALQSGNSQESVTEQDSKDSTYSLSSTLTLSKADYEKHKVYACEVTHQGLSSPVTKSFNRGEC
notes: only the Fc knob chain carries PG-LALA; also called P1AF6741; Her2-CD28 (P1AF6741)
Take B12: the binding result in assay [3] was “binds”. Besides, the results for the “EC50 (read off the curve)” value in assay [4] and in assay [5] were roughly 3 nM and 6 to 7 nM, respectively.

B13: Molecule D: Her2 (trastuzumab CLC)-CD28 (SA_variant 8) 1+1 (bispecific antibody, human IgG1, kappa, L234A L235A)
heavy 1: not shown
light 1: B12 light 1
heavy 2: not shown
light 2: B12 light 2
notes: huIgG1 PG-LALA CrossFab: VH/VL exchange in the CD28 Fab (knob), charged modifications in the Her2 Fab (hole); also called P1AF8338
In the case of B13, the binding result in assay [6] was “binds”. For the same molecule, in assay [4], the concentration giving a half-maximal response (EC50 (read off the curve)) was roughly 3 nM.

B14: Molecule B: Her2 (pertuzumab CLC)-CD28 (SA_Variant 8) 1+1 format (bispecific antibody, human IgG1, kappa, L234A L235A)
heavy 1: not shown
light 1: B12 light 1
heavy 2: EVQLVESGGGLVQPGGSLRLSCAASGFTFNDYTMDWVRQAPGKGLEWVADVNPNSGGSIVNRRFKGRFTLSVDRSKNTLYLQMNSLRAEDTAVYYCARNLGPFFYFDYWGQGTLVTVSSASTKGPSVFPLAPSSKSTSGGTAALGCLVEDYFPEPVTVSWNSGALTSGVHTFPAVLQSSGLYSLSSVVTVPSSSLGTQTYICNVNHKPSNTKVDEKVEPKSCDKTHTCPPCPAPEAAGGPSVFLFPPKPKDTLMISRTPEVTCVVVDVSHEDPEVKFNWYVDGVEVHNAKTKPREEQYNSTYRVVSVLTVLHQDWLNGKEYKCKVSNKALGAPIEKTISKAKGQPREPQVCTLPPSRDELTKNQVSLSCAVKGFYPSDIAVEWESNGQPENNYKTTPPVLDSDGSFFLVSKLTVDKSRWQQGNVFSCSVMHEALHNHYTQKSLSLSP
light 2: B12 light 2
notes: huIgG1 PG-LALA CrossFab: VH/VL exchange in the CD28 Fab (knob), charged modifications in the Her2 Fab (hole); also called P1AF8305
Turning to B14, the binding result in assay [6] is “binds”. In addition, the “EC50 (read off the curve)” value in assay [4] was roughly 3 nM.

The record behind these values is patent US20220017637A1 (Hoffmann-La Roche, published 2022).
